From patent publication US20130280282A1, “DR5 LIGAND DRUG CONJUGATES” (Daiichi Sankyo Co., Ltd., priority 2012, published 2013)

B1: hB273 antibody (humanized B273) (antibody, human IgG1, kappa, V domains shown)
VH: EVQLVQSGAEVKKPGASVKVSCKASGYSFIGYFMNWMKQSPGMSLEWIGRFNPYNEDTFYNQKFKGKATLTVDKSTSTAYMELSSLRSEDTAVYFCARSAYYFDSGGYFDYWGQGTLVTVSS
VL: DIVMTQSPLSLPVTPGEPASISCRSSQSLVHSNKNTYLHWYLQKPGQSPQLLIYKVSNRFSGVPDRFSGSGSGTDFTLKISRVEAEDVGVYYCSQSTHVPWTFGPGTKVEIKR
notes: Anti-DR5 antibody
B2: hB273-vc-MMAE (antibody drug conjugate of hB273 conjugated with mc-vc-MMAE) (antibody, V domains shown)
VH: B1 VH
VL: B1 VL
modifications: mc-vc-MMAE drug-linker on cysteine thiols freed by partial TCEP reduction; average about 3.5 to 4.5 drug-linker units per antibody; positions not given
notes: Antibody drug conjugate of hB273; also called hB273-veMMAE

Key:
[1] = molecular target: T1, recombinant soluble DR5 protein (rsDR5) (human, UniProt O14763 56-183); assay: SPR, BIAcore 3000; antibody captured by anti-human IgG (Fc) on CM5 chip, rsDR5 0.3-85 nM as analyte
T1 construct: Expressed in E. coli from pET21b(+)-sDR5 and purified on Ni-NTA; also called DR5 extracellular domain protein
Experimental: (§1) For the direct coupling of anti-human IgG (Fc), CM5 sensor chips and the reference flow cells were coated with ˜1500-2000 RU in HBS-EP+(10 mM HEPES buffer, pH 7.4, 0.15 M NaCl, 3 mM EDTA, and 0.05% Surfactant P20). […] For regeneration, 3 M MgCl₂ was loaded at flow rate of 10 μl/min for 30 sec. All sensograms were globally fitted using BIAevaluation software 3.1 (Biacore) to determine the dissociation constant KD (KD=koff/kₒₙ).

[2] = molecular target: T1, recombinant soluble DR5 protein (rsDR5); assay: SPR, BIAcore 3000; conjugate captured by anti-human IgG (Fc) on CM5 chip, rsDR5 0.3-85 nM as analyte
Experimental: as §1

Binder | Kd [1] | kon [1] | Kd [2]
B1 | 2.6 nM | 2.6e+06 M⁻¹ s⁻¹ | –
B2 | – | – | 3.2 nM
